Data from IntAct's records for PubMed 18786923.

B1: Complement factor H (Homo sapiens), P08603 (parent)
chain: MRLLAKIICLMLWAICVAEDCNELPPRRNTEILTGSWSDQTYPEGTQAIYKCRPGYRSLGNVIMVCRKGEWVALNPLRKCQKRPCGHPGDTPFGTFTLTGGNVFEYGVKAVYTCNEGYQLLGEINYRECDTDGWTNDIPICEVVKCLPVTAPENGKIVSSAMEPDREYHFGQAVRFVCNSGYKIEGDEEMHCSDDGFWSKEKPKCVEISCKSPDVINGSPISQKIIYKENERFQYKCNMGYEYSERGDAVCTESGWRPLPSCEEKSCDNPYIPNGDYSPLRIKHRTGDEITYQCRNGFYPATRGNTAKCTSTGWIPAPRCTLKPCDYPDIKHGGLYHENMRRPYFPVAVGKYYSYYCDEHFETPSGSYWDHIHCTQDGWSPAVPCLRKCYFPYLENGYNQNYGRKFVQGKSIDVACHPGYALPKAQTTVTCMENGWSPTPRCIRVKTCSKSSIDIENGFISESQYTYALKEKAKYQCKLGYVTADGETSGSITCGKDGWSAQPTCIKSCDIPVFMNARTKNDFTWFKLNDTLDYECHDGYESNTGSTTGSIVCGYNGWSDLPICYERECELPKIDVHLVPDRKKDQYKVGEVLKFSCKPGFTIVGPNSVQCYHFGLSPDLPICKEQVQSCGPPPELLNGNVKEKTKEEYGHSEVVEYYCNPRFLMKGPNKIQCVDGEWTTLPVCIVEESTCGDIPELEHGWAQLSSPPYYYGDSVEFNCSESFTMIGHRSITCIHGVWTQLPQCVAIDKLKKCKSSNLIILEEHLKNKKEFDHNSNIRYRCRGKEGWIHTVCINGRWDPEVNCSMAQIQLCPPPPQIPNSHNMTTTLNYRDGEKVSVLCQENYLIQEGEEITCKDGRWQSIPLCVEKIPCSQPPQIEHGTINSSRSSQESYAHGTKLSYTCEGGFRISEENETTCYMGKWSSPPQCEGLPCKSPPEISHGVVAHMSDSYQYGEEVTYKCFEGFGIDGPAIAKCLGEKWSHPPSCIKTDCLSLPSFENAIPMGEKKDVYKAGEQVTYTCATYYKMDGASNVTCINSRWTGRPTCRDTSCVNPPTVQNAYIVSRQMSKYPSGERVRYQCRSPYEMFGDEEVMCLNGNWTEPPQCKDSTGKCGPPPPIDNGDITSFPLSVYAPASSVEYQCQNLYQLEGNKRITCRNGQWSEPPKCLHPCVISREIMENYNIALRWTAKQKLYSRTGESVEFVCKRGYRLSSRSHTLRTTCWDGKLEYPTCAKR
partner: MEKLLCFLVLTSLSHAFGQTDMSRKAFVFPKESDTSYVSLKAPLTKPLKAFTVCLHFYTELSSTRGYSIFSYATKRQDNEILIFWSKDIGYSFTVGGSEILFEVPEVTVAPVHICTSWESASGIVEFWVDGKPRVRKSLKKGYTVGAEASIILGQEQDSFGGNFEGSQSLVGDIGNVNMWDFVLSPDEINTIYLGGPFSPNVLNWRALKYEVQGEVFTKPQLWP

Variants of: B1
Details: with crp_human CRP

Variant	effect of a mutation on the interaction
Y402H	with no effect

Variants of: B1
Details: with crp_human CRP
Remark: another data set of the same source

Variant	effect of a mutation on the interaction
Y402H	decreasing interaction strength
